Test results reported in US7488573B2, “In vivo angiogenesis assay” (Children's Hospital Medical Center, priority 2002, dated 2009).

Tested on: PM vascular system
Assay: In vivo pupillary membrane (PM) angiogenesis assay in rat pups, transcorneal injection
Set-up: species or system Sprague-Dawley rat
Conditions: after 24 hours
Protocol: A Sprague-Dawley rat pup, available from Taconic Farms (German Town, N.Y.), aged postconception (p.c.) day 30.5 to p.c. 34.5, was subdued with metaphane and subsequently anaesthetized with an intramuscular injection of ketamine and xylazine at 1.6 mg/g and […] respectively. The depth of anesthesia was monitored by paw pinch response and where necessary, the subject pup was maintained under anesthesia with additional doses of ketamine and xylazine intraperitoneally. The right eyelid of the rat pup was parted at the suture using a microdissecting vanna (Storz, St Louis), the eyeball gently raised, and the eyelids folded underneath to permit illumination of the eye with optic fibre light guides. The local anesthetic tetracaine hydrochloride (0.5%) was applied to the eyeball prior to parting of the eyelids. The rat pup was then placed in a silastic body mold designed to reduce movement, and kept warm with an overlaid heating element from a battery powered boot warmer (L. L. Bean, Maine). The liquid phase for the water immersion microscope objective was provided by addition of a bead of phosphate-buffered saline between the eyeball and the objective. Capillaries of the pupillary membrane were readily detected by searching through the focal axis. An eye holder as shown in FIG. 1 held the eyeball to limit movement, and to illuminate the interior of the eye.
A 5× air objective of a Zeiss Axiophot microscope (Zeiss, Thornwood, N.Y.) was positioned above the cornea of an anaesthetized rat. A beveled glass needle mounted on a micromanipulator was axially apposed to the eye holder and in this position could penetrate the cornea for delivery of the test substance directly onto the pupillary membrane.
A defined volume of a test substance was delivered to the anterior chamber using a Nanoject Variable injector (Drummond, Pa.).
After the predetermined period of angiogenic progress, the rat pup was humanely sacrificed. The treated PM was prepared as a whole mount specimen by dissecting the retina, sclera, choroid and cornea away from the lens, iris diaphragm, hyaloid vessels and pupillary membrane. The latter tissue group was then fixed overnight in 2% glutaraldehyde in 0.1 M cacodylate pH 7.4, 0.1 M sucrose. After fixation, the tissue was washed in buffer alone and dehydrated in an ethanol series (50%, 70%, 80%, 90%, 95% and 100%). The specimens where then treated for 1 hour in hexamethyldisilazane (Polysciences Inc. Pennsylvania) and then air dried overnight. After drying, they were mounted and sputter coated with approximately 100 angstroms of gold-palladium. Specimens were visualized using a JOEL SEM 840 scanning electron microscope.
The angiogenic effect on the cellular/vascular PM system was observed and recorded with imaging and recording means. […]

B1: Ang2: biotinylated recombinant human Ang2, available from Calbiochem (protein, UniProt O15123 19-496, looked up)
Angiopoietin-2: YNNFRKSMDSIGKKQYQVQHGSCSYTFLLPEMDNCRSSSSPYVSNAVQRDAPLEYDDSVQRLQVLENIMENNTQWLMKLENYIQDNMKKEMVEIQQNAVQNQTAVMIEIGTNLLNQTAEQTRKLTDVEAQVLNQTTRLELQLLEHSLSTNKLEKQILDQTSEINKLQDKNSFLEKKVLAMEDKHIIQLQSIKEEKDQLQVLVSKQNSIIEELEKKIVTATVNNSVLQKQQHDLMETVNNLLTMMSTSNSAKDPTVAKEEQISFRDCAEVFKSGHTTNGIYTLTFPNSTEEIKAYCDMEAGGGGWTIIQRREDGSVDFQRTWKEYKVGFGNPSGEYWLGNEFVSQLTNQQRYVLKIHLKDWEGNEAYSLYEHFYLSSEELNYRIHLKGLTGTAGKISSISQPGNDFSTKDGDNDKCICKCSQMLTGGWWFDACGPSNLNGMYYPQRQNTNKFNGIKWYYWKGSGYSLKATTMMIRPADF
modifications: biotin
notes: biotinylated recombinant human Ang2, available from Calbiochem
B1 was tested, and the “increase in the width of flattened vessels present in the whole mount preparations” value (rat pups A5, Ang2 10 nanograms/ml anterior chamber, compared to the control) was 2.1 fold, the “staining by HU177 antibody (collagen remodeling of the basal lamina of the PM)” value (rat pups A5, Ang2 10 nanograms/ml anterior chamber, control showed no staining) was “significant staining” and the “number of mitotic cells in the PM blood vessels” value (rat pups A5, injection into anterior chamber (VEGF 1 nanogram/ml; Ang2 10 nanograms/ml), compared to the control (un-injected eye)) was “significant increase”. The “diameter of capillary vessels” value (rat pups A5, injection into anterior chamber (VEGF 1 nanogram/ml; Ang2 10 nanograms/ml; anti-Tie2 50 nanograms/ml), compared to the control) was “dramatic increase”.
